Among the data in the supplement of paper PMC10567573 are protein stability index values, retold here.

The series in a line: protein stability index of a GFP-peptide fusion (GPS, HEK-293T) (PSI 1-6); higher = more stable. The settings on record: c terminus: a fixed tail appended.

± gives the standard deviation.
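Note: 24-mer peptide tiles fused after GFP, lentivirally expressed, FACS-sorted into six equal bins by GFP/DsRed ratio, decoded by Illumina sequencing, PSI is the read-weighted mean bin number.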

Turning to PYMSIQPAEDPDDYDDGFSMKHTA [SMARCE1], the protein stability index stood at 4.88 ± 0.12 (treatment: DMSO) and 4.78 ± 0.21 (treatment: MLN4924 1 uM, 8 h).
On to QAIEPQAIVQQVPAPSRMQMPQGN [SNX8], for which the protein stability index reads like this: (treatment: DMSO) 4.64 ± 0.25; (treatment: MLN4924 1 uM, 8 h) 4.75 ± 0.22.
Consider QCWKSLFIDTYSDVGRYIDHYAAI [FBXO3], for which the protein stability index reads like this: (treatment: DMSO) 2.65 ± 0.48; (treatment: MLN4924 1 uM, 8 h) 2.8 ± 0.72.
The matching figures for QDLKLFLQEPGVFSPTPPQQFQPA [FCHSD1]: 3.26 ± 0.34 and 3.55 ± 0.55.
In the case of QDPEGKGEQEHSQQKEEEEEMAVV [CHGA], the protein stability index is 5.43 ± 0.34 (treatment: DMSO) and 5.69 ± 0.13 (treatment: MLN4924 1 uM, 8 h).
Regarding QEAAQLDMLLEKLPQVAEEISGPL [FLOT1], the protein stability index reads like this: (treatment: DMSO) 4.81 ± 0.29; (treatment: MLN4924 1 uM, 8 h) 4.76 ± 0.18.
Turning to QFYRNLGKSGLRVSCLGLGTWVTF [KCNAB2], the protein stability index came to 2.24 ± 0.86 (treatment: DMSO) and 2.2 ± 0.32 (treatment: MLN4924 1 uM, 8 h).
As to QGAPASSFVYVNPEDGRIFAQRTF [PCDHGC5], the protein stability index stood at 2.57 ± 0.27 (treatment: DMSO) and 2.78 ± 0.35 (treatment: MLN4924 1 uM, 8 h).
With QGASWELQSLRPHDEDIKTTNVKS [ZNF396], the protein stability index runs as follows: (treatment: DMSO) 5.14 ± 0.097; (treatment: MLN4924 1 uM, 8 h) 5.19 ± 0.21.
QGLIEDCQLALQQKRETLSPLCLI [KCTD13] returned a protein stability index (treatment: DMSO) of 2.47 ± 0.17 and a protein stability index (treatment: MLN4924 1 uM, 8 h) of 2.64 ± 0.25.
Consider QGSRHWQKLREESAARVVLTSLLA [DUSP5], for which the protein stability index is, setting by setting: (treatment: DMSO) 2.31 ± 0.25; (treatment: MLN4924 1 uM, 8 h) 2.44 ± 0.24.
With QGTGYIPTEQVNELVALIPHSDQR [TMEM106C], the protein stability index by setting is: (treatment: DMSO) 4.73 ± 0.18; (treatment: MLN4924 1 uM, 8 h) 4.67 ± 0.18.
On to QGVCYLVLCEAAFPKKLAFAYLED [SEC22B], for which the protein stability index amounted to 3.26 ± 0.27 (treatment: DMSO) and 3.05 ± 0.058 (treatment: MLN4924 1 uM, 8 h).
Sequence QHESGQSSSRGSSHCDSPSPQEDG [BNIP3L] came in with a protein stability index (treatment: DMSO) of 5.62 ± 0.36 and a protein stability index (treatment: MLN4924 1 uM, 8 h) of 5.5 ± 0.16.
The like results for QHHHHHHHHHGRDFLLRAASFDVC [RHOBTB2] were, in that order, 2.55 ± 0.14 and 2.58 ± 0.2.
With QKFDTLYAILDEKKSELLQRITQE [TRIM63], the protein stability index was 3.11 ± 0.095 (treatment: DMSO) and 3.21 ± 0.29 (treatment: MLN4924 1 uM, 8 h).
The matching figures for QKHTEVETVDLVLKLKNKLLQADR [DENND6A]: 3.49 ± 0.33 and 3.45 ± 0.32.
QLAKELGATYLELHSLDDFYIGKY [RHOBTB3]: the protein stability index runs as follows: (treatment: DMSO) 2.56 ± 0.56; (treatment: MLN4924 1 uM, 8 h) 2.33 ± 0.27.
The like results for QLATSSFLLFLLTGIVSVAFLLLP [MOSPD3] were, in that order, 3.5 ± 0.19 and 2.88 ± 0.54.
As for QLEQPEKMPVLKAEASHYNSDLNN [RHOBTB3], the protein stability index runs as follows: (treatment: DMSO) 4.83 ± 0.19; (treatment: MLN4924 1 uM, 8 h) 4.94 ± 0.15.
For QLESLGLLAPGEQSLPCTERKPAA [KISS1], the protein stability index by setting is: (treatment: DMSO) 4.69 ± 0.18; (treatment: MLN4924 1 uM, 8 h) 4.73 ± 0.15.
Consider QLIEEGYVGEPLVCEVQVHGGSLL [GFOD1], for which the protein stability index by setting is: (treatment: DMSO) 2.44 ± 0.15; (treatment: MLN4924 1 uM, 8 h) 2.46 ± 0.39.
Turning to QLKVVERTRTATMLCAASGNPDPE [PTPRD], the protein stability index reads like this: (treatment: DMSO) 5.16 ± 0.26; (treatment: MLN4924 1 uM, 8 h) 4.86 ± 0.38.
The matching figures for QLLKGRVDNISTLDSEIKKNSDGM [CD207]: 4.24 ± 0.16 and 4.23 ± 0.2.
Regarding QLPISSENDSTPTVSTSEVTSQQE [TAF7L], the protein stability index is 5.53 ± 0.28 (treatment: DMSO) and 5.5 ± 0.13 (treatment: MLN4924 1 uM, 8 h).
As to QNLVYYRFHRARWGLEEEDFQPRE [P3H4], the protein stability index reads like this: (treatment: DMSO) 2.38 ± 0.17; (treatment: MLN4924 1 uM, 8 h) 2.25 ± 0.27.
In turn, QNYISQKEDASEFQILKYLFQIDV [MIA2] returned a protein stability index (treatment: DMSO) of 2.28 ± 0.21 and a protein stability index (treatment: MLN4924 1 uM, 8 h) of 2.25 ± 0.45.
Turning to QPFYHDDSYTATGYGRAPGGLSLH [JUNB], the protein stability index stood at 3.18 ± 0.39 (treatment: DMSO) and 3.36 ± 0.24 (treatment: MLN4924 1 uM, 8 h).
QPIRGVEGSDYINASFIDGYRQQK [PTPRD]: the protein stability index (treatment: DMSO) was found to be 4.31 ± 0.27 and the protein stability index (treatment: MLN4924 1 uM, 8 h) amounted to 4.37 ± 0.19.
As for QQELRELRRELELLGRERDRVQVE [PRPH], the protein stability index by setting is: (treatment: DMSO) 4.06 ± 0.52; (treatment: MLN4924 1 uM, 8 h) 4.39 ± 0.29.
The matching figures for QQFKQYSRHVTTRAALTYTSLEIT [M1AP]: 2.44 ± 0.18 and 2.6 ± 0.3.
As to QQNIPSTLLQDHENQRLFEMLGRK [WAS], the protein stability index (treatment: DMSO) is 4.32 ± 0.17 and the protein stability index (treatment: MLN4924 1 uM, 8 h) came to 4.25 ± 0.24.
The like results for QQQQLTFTAALEHCRENAHDKIRP [SPACA9] were, in that order, 4.1 ± 0.22 and 4.03 ± 0.16.
Regarding QQWFPSLELGHWLYQTELVENECY [TOR1AIP2], the protein stability index by setting is: (treatment: DMSO) 2.55 ± 0.54; (treatment: MLN4924 1 uM, 8 h) 2.34 ± 0.47.
The matching figures for QRLIVGNSALKDKEDQFGRTPLMY [INVS]: 3.05 ± 0.31 and 3.31 ± 0.35.
The matching figures for QSDTLEQREEHELVHVMERSLSPS [RAD54B]: 5.45 ± 0.26 and 5.33 ± 0.23.
Turning to QSNYDTKGKTAVDTVFRFDPRYNK [KLHL13], the protein stability index is, setting by setting: (treatment: DMSO) 3.49 ± 0.23; (treatment: MLN4924 1 uM, 8 h) 4.17 ± 0.22.
Regarding QTPTKEELDAIIEEVDEDGSGTID [TNNC2], the protein stability index stood at 5.67 ± 0.44 (treatment: DMSO) and 5.16 ± 0.28 (treatment: MLN4924 1 uM, 8 h).
The matching figures for QTSSSSSQSETSSAVSTPSPVTRT [DLC1]: 5.45 ± 0.22 and 5.28 ± 0.38.
For QVPRSPVIKISYSTPQGKGEVVKI [PWWP2B], the protein stability index stood at 2.73 ± 0.26 (treatment: DMSO) and 2.58 ± 0.26 (treatment: MLN4924 1 uM, 8 h).
In the case of QWLVSQLSAASPDTGHDSDKSDQS [TRAF3IP2], the protein stability index is, setting by setting: (treatment: DMSO) 4.66 ± 0.16; (treatment: MLN4924 1 uM, 8 h) 4.73 ± 0.47.
For QYNRSSNSNGGNLNSPPGPHSAKT [CDC14A], the protein stability index is 4.42 ± 0.19 (treatment: DMSO) and 4.33 ± 0.29 (treatment: MLN4924 1 uM, 8 h).
The sequence RALNSVPVIIAAVGTRQNEELPCT [RHOBTB3] displayed a protein stability index (treatment: DMSO) of 3.39 ± 0.24 and a protein stability index (treatment: MLN4924 1 uM, 8 h) of 3.46 ± 0.16.
Take RAPKVLGTTLVVGLLAGVGYFAFM [GDAP1]: the protein stability index by setting is: (treatment: DMSO) 3.66 ± 0.29; (treatment: MLN4924 1 uM, 8 h) 3.17 ± 0.27.
RCGKHFGTILNYLRDGAVPLPESR [KCTD10] displayed a protein stability index (treatment: DMSO) of 2.27 ± 0.3 and a protein stability index (treatment: MLN4924 1 uM, 8 h) of 2.38 ± 0.32.
Regarding RCLIWGRKPKVIECSYTSADGQRH [DHCR7], the protein stability index by setting is: (treatment: DMSO) 2.61 ± 0.33; (treatment: MLN4924 1 uM, 8 h) 2.77 ± 0.33.
In turn, RDAAIKKLATEAGVEVIVRISHTL [CRY1] came in with a protein stability index (treatment: DMSO) of 2.83 ± 0.92 and a protein stability index (treatment: MLN4924 1 uM, 8 h) of 2.62 ± 0.68.
The matching figures for RDAKAAMAGRLMIRKLVAEKLNIP [AASDHPPT]: 2.62 ± 0.28 and 2.79 ± 0.36.
Regarding RDEVRFFKGNKYWAVQGQNVLHGY [MMP1], the protein stability index was 2.35 ± 0.22 (treatment: DMSO) and 2.51 ± 0.14 (treatment: MLN4924 1 uM, 8 h).
RDGLAEDLAALKQRLEEETRKRED [PRPH] had a protein stability index (treatment: DMSO) of 5.33 ± 0.33 and a protein stability index (treatment: MLN4924 1 uM, 8 h) of 5.25 ± 0.27.
The like results for RDLEKQKEEVRAALEQREQDAVDQ [TRIM29] were, in that order, 5.59 ± 0.08 and 5.66 ± 0.22.
For the sequence RDVPESPQHAADTPKSGEPRVPEE [YJU2B], the protein stability index came out at 5.44 ± 0.19 (treatment: DMSO) and 5.53 ± 0.24 (treatment: MLN4924 1 uM, 8 h).
